According to patent US7045617 (MOUNT SINAI SCHOOL OF MEDICINE, dated 2006):
Side-chain parts run from the residue outwards. [ ]: non-standard residue; d: D form. Phe(4-NH2) = Nc1ccc(C[C@H](N)C(=O)O)cc1; Dap = NC[C@H](N)C(=O)O

Key:
[1] = biological target: protein tyrosine kinase Csk (UniProt P41240 1-450, limits assumed); assay: Csk kinase inhibition assay
[2] = biological target: T1, recombinant mouse protein kinase A (catalytic subunit) (mouse, UniProt P05132 2-351); assay: PKA radiometric kinase assay, Dixon plot, adjusted to zero substrate
Description: (§1) Reagents from Calbiochem's Protein Kinase A kit were used to perform the inhibition assays and recombinant mouse PKA (catalytic subunit) was also purchased from Calbiochem (enzyme concentration was established by Bradford analysis). […] These were further diluted into water to produce a range of inhibitor solutions between 51 μM and 507 nM. An 11.25 μL aliquot from each of these solutions was pre-incubated with 7.5 μL of a 1.75 nM PKA enzyme solution (750 ug/uL bovine serum albumin) for 10 minutes at 30° C. after which 12.5 μL of pre-incubation mix was added to 12.5 μL of reaction mix (30 μM cold ATP, 50 μM biotinylated kemptide substrate, 0.04 uCi/μL γP-32 ATP, 80 mM Tris-HCl, 10 mM MgCl_2, pH 7.5) to initiate the enzymatic reaction. […] The columns were placed in scintillation vials and radioactivity was measured using a scintillation counter.

[3] = biological target: T1, recombinant mouse protein kinase A …; assay: PKA radiometric kinase assay with biotinylated kemptide, Dixon plot, versus ATP
Description: as §1

Sequence of protein tyrosine kinase Csk (P41240 whole entry): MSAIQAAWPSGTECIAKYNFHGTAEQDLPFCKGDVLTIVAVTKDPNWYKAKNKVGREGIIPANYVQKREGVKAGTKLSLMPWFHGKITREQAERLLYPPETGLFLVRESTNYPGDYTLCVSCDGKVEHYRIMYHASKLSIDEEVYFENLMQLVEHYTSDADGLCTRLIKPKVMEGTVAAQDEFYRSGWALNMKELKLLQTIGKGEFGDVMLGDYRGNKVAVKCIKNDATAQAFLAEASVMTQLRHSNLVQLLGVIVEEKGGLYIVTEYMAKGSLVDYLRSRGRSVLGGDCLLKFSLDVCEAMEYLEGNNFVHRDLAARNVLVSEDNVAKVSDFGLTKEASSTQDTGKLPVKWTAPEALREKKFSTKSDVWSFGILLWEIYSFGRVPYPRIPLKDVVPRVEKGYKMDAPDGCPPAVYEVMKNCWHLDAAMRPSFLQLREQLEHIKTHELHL

Binder | Ki [1] [µM] | Ki [2] [µM] | Ki [3] [µM]
Ac-KKKLPATGD[Phe(4-NH2)]([Ac-ATPγS])MNMSPVGD-OH (also called bisubstrate analog 2) [Compound 2 (peptide-ATP bisubstrate analog; IRS727 peptide linked to ATPγS through an acetyl linker)] | ~40 |  | 
Ac-LRRA[Dap]([Ac-ATPγS])LG-OH [kemptide-ATPγS conjugate] |  | 4.6 | 9.56
